Test results taken from patent publication US20120316071A1 (published 2012).

T1: rHuman Erythropoietin R/Fc Chimera, CF (R&D Systems Cat#963-ER) (human, UniProt P19235 25-250)
T1 construct: Bought recombinant protein; also called EPO R; EPO R/Fc; Fc part of the bought chimera not given
T1 sequence (looked up): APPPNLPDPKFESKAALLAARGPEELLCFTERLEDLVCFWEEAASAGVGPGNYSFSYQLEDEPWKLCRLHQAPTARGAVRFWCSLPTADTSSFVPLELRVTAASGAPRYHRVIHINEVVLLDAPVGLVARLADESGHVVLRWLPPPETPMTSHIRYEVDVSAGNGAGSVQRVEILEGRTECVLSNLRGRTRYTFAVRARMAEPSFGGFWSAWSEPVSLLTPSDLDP


Columns and labels:
[1] = biological target: T2, rHuman HGF R/c-MET/Fc Chimera, CF (R&D Systems Cat#358-MT/CF) (human, UniProt P08581 25-932); assay: ECL multispot (MSD), antigen spotted on plate, Fab at 50.00 (column head: Fab [µM])
T2 construct: Bought recombinant protein; also called HGF R/Fc; Fc part of the bought chimera not given

[2] = biological target: T1, rHuman Erythropoietin R/Fc Chimera, CF …; assay: as above
[3] = biological target: T3, rHuman IGF-1 sR (insulin-like growth factor-1 soluble receptor), CF (R&D Systems Cat#391-GR) (human, UniProt P08069 31-932); assay: as above
T3 construct: Bought recombinant soluble receptor

[4] = biological target: T4, Recombinant Human DLL4 (R&D Systems Cat#1506-D4/CF) (human, UniProt Q9NR61 27-524); assay: as above
T4 construct: Bought recombinant protein; also called delta-like protein 4; rHuman DLL4

[5] = biological target: T5, rHuman CD44/Fc Chimera, CF (R&D Systems Cat#3660-CD) (human, UniProt P16070 21-220); assay: as above
T5 construct: Bought recombinant protein; Fc part of the bought chimera not given

[6] = biological target: T6, rHuman P-Cadherin/Fc Chimera, CF (R&D Systems Cat#861-PC) (human, UniProt P22223 108-654); assay: as above
T6 construct: Bought recombinant protein; Fc part of the bought chimera not given

[7] = biological target: T7, rHuman Notch-1/Fc Chimera, CF (R&D Systems Cat#3647-TK) (human, UniProt P46531 19-526); assay: as above
T7 construct: Bought recombinant chimera; Fc part of the bought chimera not given

[8] = biological target: T8, rHuman EGF R/Fc Chimera, CF (R&D Systems Cat#344-ER) (human, UniProt P00533 25-645); assay: as above
T8 construct: Bought recombinant protein; Fc part of the bought chimera not given

[9] = biological target: T9, rHuman ErbB2/Fc Chimera, CF (R&D Systems Cat#1129-ER) (human, UniProt P04626 23-652); assay: as above
T9 construct: Bought recombinant protein; Fc part of the bought chimera not given

[10] = biological target: T2, rHuman HGF R/c-MET/Fc Chimera, CF (R&D …); assay: ECL multispot (MSD), antigen spotted on plate, Fab at 0.50 (column head: Fab [µM])
[11] = biological target: T1, rHuman Erythropoietin R/Fc Chimera, CF …; assay: as above
[12] = biological target: T3, rHuman IGF-1 sR (insulin-like growth …); assay: as above
[13] = biological target: T4, Recombinant Human DLL4 (R&D Systems …); assay: as above
[14] = biological target: T5, rHuman CD44/Fc Chimera, CF (R&D Systems …); assay: as above
[15] = biological target: T6, rHuman P-Cadherin/Fc Chimera, CF (R&D …); assay: as above
[16] = biological target: T7, rHuman Notch-1/Fc Chimera, CF (R&D …); assay: as above
[17] = biological target: T8, rHuman EGF R/Fc Chimera, CF (R&D …); assay: as above
[18] = biological target: T9, rHuman ErbB2/Fc Chimera, CF (R&D …); assay: as above
[19] = biological target: T2, rHuman HGF R/c-MET/Fc Chimera, CF (R&D …); assay: ECL multispot (MSD), antigen spotted on plate, Fab at 500.00 (column head: Fab [µM])

T2 sequence (P08581 25-932, change not shown): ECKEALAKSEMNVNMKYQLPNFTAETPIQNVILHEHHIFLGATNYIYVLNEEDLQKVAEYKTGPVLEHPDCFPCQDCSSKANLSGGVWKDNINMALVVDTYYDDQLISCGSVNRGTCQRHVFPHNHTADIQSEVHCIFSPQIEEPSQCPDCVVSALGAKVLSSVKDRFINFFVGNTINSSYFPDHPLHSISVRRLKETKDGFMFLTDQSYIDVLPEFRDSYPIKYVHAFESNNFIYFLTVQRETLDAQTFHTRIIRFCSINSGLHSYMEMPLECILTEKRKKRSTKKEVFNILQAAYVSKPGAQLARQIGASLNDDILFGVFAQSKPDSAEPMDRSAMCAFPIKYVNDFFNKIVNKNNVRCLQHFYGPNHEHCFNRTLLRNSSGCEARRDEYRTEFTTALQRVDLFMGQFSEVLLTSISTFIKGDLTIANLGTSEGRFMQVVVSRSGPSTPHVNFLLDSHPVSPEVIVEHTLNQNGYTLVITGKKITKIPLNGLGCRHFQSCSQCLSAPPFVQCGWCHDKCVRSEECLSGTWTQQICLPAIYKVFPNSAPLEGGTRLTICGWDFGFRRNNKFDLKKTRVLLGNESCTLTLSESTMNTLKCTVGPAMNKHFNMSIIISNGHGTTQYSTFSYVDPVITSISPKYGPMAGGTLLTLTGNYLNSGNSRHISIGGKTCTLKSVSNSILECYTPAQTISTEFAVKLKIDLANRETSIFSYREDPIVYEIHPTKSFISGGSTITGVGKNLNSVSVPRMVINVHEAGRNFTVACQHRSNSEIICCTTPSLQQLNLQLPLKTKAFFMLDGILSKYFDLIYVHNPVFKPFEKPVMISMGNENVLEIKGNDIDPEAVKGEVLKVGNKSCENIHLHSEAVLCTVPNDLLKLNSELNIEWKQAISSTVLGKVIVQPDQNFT

signal/noise ratio (ECL) [1] | signal/noise ratio (ECL) [2] | signal/noise ratio (ECL) [3] | signal/noise ratio (ECL) [4] | signal/noise ratio (ECL) [5] | signal/noise ratio (ECL) [6] | signal/noise ratio (ECL) [7] | signal/noise ratio (ECL) [8] | signal/noise ratio (ECL) [9] | signal/noise ratio (ECL) [10] | signal/noise ratio (ECL) [11] | signal/noise ratio (ECL) [12] | signal/noise ratio (ECL) [13] | signal/noise ratio (ECL) [14] | signal/noise ratio (ECL) [15] | signal/noise ratio (ECL) [16] | signal/noise ratio (ECL) [17] | signal/noise ratio (ECL) [18] | signal/noise ratio (ECL) [19] | Binder
0.6 | 0.9 | 0.5 | 33.5 | 0.3 | 0.7 | 0.6 | 0.9 | 0.6 | 0.6 | 0.9 | 1.2 | 2.9 | 1 | 1.3 | 2 | 1.4 | 1 | 0.3 | Fab VH1-46_IGHD6-6*01_IGHJ1*01 & L6_IGKJ1*01 (Fab, V domains shown, Tested as a Fab expressed in E. coli; The heavy chain came from Plasmid A (CH1 with His6 and Flag tags) and the kappa light chain from Plasmid C (kappa CL); also called Wt; wildtype) VH: QVQLVQSGAEVKKPGASVKVSCKASGYTFTSYYMHWVRQAPGQGLEWMGIINPSGGSTSYAQKFQGRVTMTRDTSTSTVYMELSSLRSEDTAVYYCAREEYSSSSAEYFQHWGQGTLVTVSS VL: not shown
0.7 | 1.6 | 0.5 | 274 | 0.7 | 0.9 | 1.1 | 1 | 0.7 | 0.8 | 0.9 | 1.3 | 34.5 | 1 | 0.8 | 1.4 | 1.1 | 1 | 2.2 | Fab VH1-46_IGHD6-6*01_IGHJ1*01 S102A/S103P/S104F (APF) & L6_IGKJ1*01 (Fab, V domains shown, Tested as a Fab expressed in E. coli; the constant parts (CH1 with His6/Flag tags, kappa CL) come from Plasmids A and C; also called APF triple mutant; H:APF & L:wt) VH: QVQLVQSGAEVKKPGASVKVSCKASGYTFTSYYMHWVRQAPGQGLEWMGIINPSGGSTSYAQKFQGRVTMTRDTSTSTVYMELSSLRSEDTAVYYCAREEYAPFSAEYFQHWGQGTLVTVSS VL: not shown
